Values quoted from earlier work as cited in publication PMC9437947.

Target: Lys166 (UniProt position 166, RAVKTKIGYPA)
Experiment: kinetics
Conditions: H297N mutant turning over S-mandelate in the exchange reaction

Mandelate racemase H297N mutant (Pseudomonas putida (inferred; organism not stated in the article); H297N)
pKa: ~ 6
